# B1: HDV Ribozyme (parent)
# chain: GGCCGGCAUGGUCCCAGCCUCCUCGCUGGCGCCGGCUGGGCAACAUUCCGAGGGGACCGUCCCCUCGGUAAUGGCGAAUGGGACCCA
# Variants of: B1
# Assay: self-cleavage, relative activity (ratio to wild type); higher = more cleavage; co-transcriptional
row,Variant,self-cleavage
1,U27C U69G,0.712
2,G28A A83G,0.0946
3,G28A A83U,0.0308
4,G28A A83C,0.0875
5,U27G U72C,0.32
6,U27G G39C,0.0723
7,U27C G76C,1.21
8,G28A A70U,0.203
9,G28A U47C,0.0739
10,U27C C44U,0.19
11,G28A G35A,0.0608
12,G28A G35C,0.153
13,U27G C75A,0.0755
14,G28C A78G,0.26
15,U27A G80A,0.499
16,G28A U65C,0.0415
17,U27G A77U,0.346
18,U27A U65G,1.12
19,U27A U65C,0.957
20,G28A G34A,0.175
21,G28A G34C,0.0536
22,U27G G29A,0.283
23,U27A U60A,0.918
24,U27C G74U,0.332

row,Variant,self-cleavage
1,U27C G74C,0.383
2,G28A G81A,0.101
3,G28A G52C,0.0773
4,U27C C61G,0.795
5,U27G A83C,0.831
6,U27C C58G,0.7
7,G28A C36A,0.203
8,G28A C36U,0.0811
9,G28A C30G,0.117
10,U27C C36G,0.185
11,U27C C62A,0.54
12,U27C C57A,0.692
13,G28A A71G,0.0831
14,U27A U46A,0.831
15,G28A C63U,0.107
16,U27G U79G,0.427
17,U27G U79A,0.462
18,U27G C86G,0.745
19,G28C A42C,0.0437
20,G28A A42C,0.128
21,G28A A42U,0.0723
22,G28C A43G,0.0573
23,G28C A43C,0.0573
24,G28A A43G,0.0739

row,Variant,self-cleavage
1,G28A A43U,0.0241
2,G28A C61G,0.133
3,G28A C61A,0.0791
4,G28A G39A,0.187
5,G28A G39C,0.106
6,U27C A45G,0.511
7,U27G G81A,0.597
8,G28A G38C,0.0978
9,U27C A42C,0.431
10,U27C A56U,0.674
11,U27C A56G,0.575
12,U27C A56C,0.612
13,U27G U69G,0.798
14,U27G U69C,0.969
15,U27C G29C,0.107
16,U27C G29A,0.125
17,U27C A43G,0.383
18,U27C A43U,0.237
19,G28A U72G,0.107
20,U27C U60A,1.09
21,U27C C66U,0.534
22,U27G C61U,0.831
23,G28C A71U,0.0426
24,U27G G55C,0.779

row,Variant,self-cleavage
1,G28A G53C,0.0831
2,G28A G53A,0.02
3,U27A U72C,0.277
4,U27C G28C,0.123
5,G28A G73A,0.112
6,U27G C49A,0.886
7,U27G A51C,0.906
8,U27G A51G,1.03
9,U27G G31A,0.539
10,U27C G80U,0.21
11,G28A G31A,0.101
12,U27C G53C,0.898
13,U27C G53A,0.696
14,G28A G74A,0.131
15,G28A C75G,0
16,G28A C75U,0.0563
17,U27G C84U,0.612
18,U27G C84A,0.831
19,U27G C84G,0.378
20,G28A A56U,0.111
21,G28A A56C,0
22,G28A A77G,0.111
23,U27G G80A,0.533
24,U27C G34C,0.106

row,Variant,self-cleavage
1,U27C G34U,0.185
2,U27G C64A,0.705
3,U27G A56C,0.712
4,U27C A77U,0.262
5,U27G G54C,0.914
6,G28C,0.0814
7,G28A,0.0977
8,U27C C85G,0.751
9,U27C G73U,0.0449
10,U27C G73A,0.231
11,G28C C30A,0
12,G28C C30G,0.101
13,G28A A45G,0.0415
14,U27C U72C,0.166
15,U27G C48U,0.942
16,U27G C48A,0.72
17,G28A G67C,0.0519
18,U27C G54U,0.845
19,U27C G54A,0.598
20,G28A G68A,0.124
21,G28A G68C,0.0692
22,U27C G35U,0.302
23,U27G A87C,0.869
24,U27C U65C,0.798

row,Variant,self-cleavage
1,U27C C63U,0.73
2,U27G G67U,0.764
3,U27G C41U,0.831
4,G28A A87U,0.0932
5,U27G G53U,0.923
6,U27C C84G,0.554
7,G28A U37A,0.0773
8,U27C C48U,0.604
9,U27C C48A,1.02
10,G28A A51U,0.138
11,U27G C44G,0.598
12,U27G A70C,0.554
13,G28A U79C,0.0542
14,U27C G52A,0.884
15,U27G G74A,0.229
16,G28A C84U,0.0744
17,U27G G82U,0.095
18,U27G G82C,0.237
19,G28C A77C,0.229
20,U27C G82U,0.208
21,U27C G59U,0.76
22,U27A U47A,0.7
23,U27A U47C,0.391
24,U27G G38C,0.0692

row,Variant,self-cleavage
1,U27G G38U,0.133
2,G28C C36A,0.0462
3,U27G C36G,0.0665
4,G28A G55U,0.056
5,U27G A78U,0.0831
6,G28A G54C,0.237
7,U27A G76A,0.997
8,G28A U69C,0.0361
9,G28A U69A,0.166
10,G28A C66A,0.0811
11,U27G G34U,0.538
12,G28A C48U,0.0997
13,U27C C64A,0.705
14,U27C A87U,0.6
15,U27C C75A,0.155
16,G28A G82A,0.0604
17,G28A C86G,0.0678
18,G28C A51G,0.0723
19,G28C A51C,0
20,U27A G81C,0.356
21,U27A G82U,0.906
22,U27G A71U,0.598
23,U27G A71G,0.875

# Reference: the RNAGym collection of RNA variant scans (doi:10.7554/elife.80360)
